Assay results published in patent US20060166332.

Molecular target: Cre recombinase (Bacteriophage P1?) (UniProt P06956)
Assay: cell_activity
Conditions: pCH110 control without loxP in Sure:cre

Chain of UniProt P06956 (P06956 whole entry): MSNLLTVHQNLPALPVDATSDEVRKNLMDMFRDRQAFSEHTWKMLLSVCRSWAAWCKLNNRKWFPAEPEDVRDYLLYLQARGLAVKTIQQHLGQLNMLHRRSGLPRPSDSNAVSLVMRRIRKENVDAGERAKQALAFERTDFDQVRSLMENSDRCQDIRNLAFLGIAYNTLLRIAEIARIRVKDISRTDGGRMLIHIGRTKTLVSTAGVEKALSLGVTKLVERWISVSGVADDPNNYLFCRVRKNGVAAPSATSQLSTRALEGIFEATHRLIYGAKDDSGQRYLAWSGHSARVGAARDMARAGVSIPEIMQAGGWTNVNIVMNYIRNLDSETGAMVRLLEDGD

Substance: pCH110 plasmid without loxP
- activity (% white colonies): 0
